Paper PMC3227427

Legend:
[1] = target: T1, Pyrococcus furiosus (Pfu) RNase P protein RPP30 (Pyrococcus furiosus); assay: ITC; Pop5 (87.2 uM) titrated into RPP30 (9.89 uM); 55°C; 10 mM sodium acetate pH 5, no salt; one-site model; apparent
T1 sequence (Q8TZS0 1-214, looked up): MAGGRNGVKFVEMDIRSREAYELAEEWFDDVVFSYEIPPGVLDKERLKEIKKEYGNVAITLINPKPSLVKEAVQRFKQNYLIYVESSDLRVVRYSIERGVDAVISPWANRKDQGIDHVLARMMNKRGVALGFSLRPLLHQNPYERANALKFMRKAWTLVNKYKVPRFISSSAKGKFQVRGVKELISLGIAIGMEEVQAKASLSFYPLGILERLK

[2] = target: T1, Pyrococcus furiosus (Pfu) RNase P protein RPP30 (Pyrococcus furiosus); assay: ITC; Pop5 (87.2 uM) titrated into RPP30 (4.95 uM); 55°C; 10 mM sodium acetate pH 5 with 130 mM KCl; one-site model; apparent
[3] = target: T1, Pyrococcus furiosus (Pfu) RNase P protein RPP30 (Pyrococcus furiosus); assay: ITC; Pop5 (148 uM) titrated into RPP30 (14.8 uM); 55°C; no salt or 150 mM NaCl; smaller injections, higher Wiseman c value; two-site model

B1: Pyrococcus furiosus (Pfu) RNase P protein Pop5, Cys72Ser variant (natural protein)
chain: MSERPKTLPPTLRDKKRYIAFKVISENQFNKDEIKEAIWNACLRTLGELGTAKAKPWLIKFDETTQTGIIRSDRNHVYDVIFSLTLVSDINGNKAIIKVLGVSGTIKRLKRKFLSQFGWR
In the case of B1, the Kd [1] is reported as 124 nM, the stoichiometry N [1] is reported as 1 and the Kd [2] is reported as 3.5 nM. The stoichiometry N [2] was 1 and the stoichiometry N [3] was 1.
